How the values were obtained:
MP^(A (E9D)) D9ADPr1 = assay: fluorescence polarisation
MP^A E9ADPr1 = assay: fluorescence polarisation
MP^A R5ADPr1 = assay: fluorescence polarisation
MP^A S7ADPr1 = assay: fluorescence polarisation
PARP14^cat = assay: PARP14cat mono-ADP-ribosylation of substrate peptides, RP-HPLC/MS; format: biochemical; details: after PARP14^cat reaction condition optimization, NAD+, listed as MP^B

Substance | Kd (MP^(A (E9D)) D9ADPr1) | Kd (MP^A E9ADPr1) | Kd (MP^A R5ADPr1) | Kd (MP^A S7ADPr1) | conversion to mono-ADP-ribosylated product (ADPr1) (PARP14^cat)
pan-ADP-ribose detection reagent (an Af1521 macrodomain-Fc region fusion) (Fc fusion) | 1810 nM | 732 nM | 15.6 nM | 1170 nM | 
GWTARKSAEVGAGK [MP^A] |  |  |  |  | no activity was detected

Reference: paper PMC11065122 (Journal of the American Chemical Society, 2023)
